The values that follow come from article PMC4637274.

Experiment [1] deals with 16055 gp140 NFL2P (HIV-1 (16055)). Nature of the experiment: negative-stain EM of unliganded trimers.
Experiment [2] concerns the target BG505 gp140 NFL2P (HIV-1 (BG505)). Kind of experiment: negative-stain EM of unliganded trimers.
The target is the same in experiment [3]. Nature of the experiment: SEC + native gel or EMSA. In general terms: In EMSA bound probe runs differently from free probe, usually more slowly.
The target in experiment [4] is JRFL gp140 NFL2P (HIV-1 (JRFL)). Kind of experiment: negative-stain EM of unliganded trimers.
For experiment [5] the target is unchanged. Kind of experiment: SEC + native gel or EMSA.

As usually defined, the stoichiometry N is a count of units in the complex or per binding partner.

For the substance 16055 gp140 NFL2P, the stoichiometry N in experiment [1] worked out at 3.
For BG505 gp140 NFL2P, the stoichiometry N in experiment [2] and in experiment [3] was 3 throughout.
For the substance JRFL gp140 NFL2P, the stoichiometry N in experiment [4] and in experiment [5] was 3 in each case.
